In patent US20260117212, “OPTIMIZED ENGINEERED MEGANUCLEASES HAVING SPECIFICITY FOR THE HUMAN T CELL RECEPTOR ALPHA CONSTANT REGION GENE” (Precision BioSciences, Inc., published 2026):

Legend:
[1] = biological target: T1, TRC 1-2L.2307 meganuclease (synthetic construct); experiment: cell_activity; CD3 knockout in primary human T cells; EC90 0.354 ug; conditions: tags: N-terminal SV40 NLS (mRNA delivered)
T1 chain: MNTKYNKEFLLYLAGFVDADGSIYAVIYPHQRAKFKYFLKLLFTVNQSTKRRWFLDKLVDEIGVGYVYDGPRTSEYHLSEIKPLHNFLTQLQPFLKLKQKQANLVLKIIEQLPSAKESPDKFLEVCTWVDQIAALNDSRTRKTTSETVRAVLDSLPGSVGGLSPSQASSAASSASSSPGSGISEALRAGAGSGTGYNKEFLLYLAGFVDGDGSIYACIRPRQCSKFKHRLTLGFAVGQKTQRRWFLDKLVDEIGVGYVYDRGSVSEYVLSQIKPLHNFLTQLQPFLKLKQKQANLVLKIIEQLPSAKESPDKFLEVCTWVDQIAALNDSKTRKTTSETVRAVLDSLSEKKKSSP
Procedure: (§1) In this study, an apheresis sample was drawn from a healthy, informed, and compensated donor, and the T cells were enriched using the CD3 positive selection kit II in accord with the manufacturer's instructions (Stem Cell Technologies). T cells were prepared for editing by stimulating with ImmunoCult anti-CD3/CD28/CD2 (Stem Cell Technologies) for three days in Xuri medium (GE Healthcare) supplemented with fetal bovine serum to 5% (Gemini Bio) and recombinant human IL-2 to 10 ng/ml (Gibco). Stimulated T cells were harvested and counted (Countess II, ThermoFisher) before electroporation was carried out on the Lonza 4-D NucleoFector using a titrated range of mRNA encoding TRC 1-2L.1592 or TRC 1-2L.2307. The concentrations used for this study were 2, 1, 0.5, 0.25, 0.125, and 0.0625 μg of RNA per 1×10⁶ stimulated T cells. Cells were subsequently cultured as above with IL-2 supplemented to 30 ng/ml.
(§2) Using cell counts and frequency of TRAC-edited CAR+ events, the number of CAR T cells produced using each TRC1-2 variant were calculated and plotted in FIG. 7. GraphPad Prism was used to calculate EC50 and EC90 values for TRC 1-2L.1592 (FIG. 7A), and TRC 1-2L.2307 (FIG. 7B).

[2] = biological target: T2, TRC 1-2L.1592 meganuclease (synthetic construct); experiment: cell_activity; CD3 knockout in primary human T cells; EC90 0.545 ug
T2 chain: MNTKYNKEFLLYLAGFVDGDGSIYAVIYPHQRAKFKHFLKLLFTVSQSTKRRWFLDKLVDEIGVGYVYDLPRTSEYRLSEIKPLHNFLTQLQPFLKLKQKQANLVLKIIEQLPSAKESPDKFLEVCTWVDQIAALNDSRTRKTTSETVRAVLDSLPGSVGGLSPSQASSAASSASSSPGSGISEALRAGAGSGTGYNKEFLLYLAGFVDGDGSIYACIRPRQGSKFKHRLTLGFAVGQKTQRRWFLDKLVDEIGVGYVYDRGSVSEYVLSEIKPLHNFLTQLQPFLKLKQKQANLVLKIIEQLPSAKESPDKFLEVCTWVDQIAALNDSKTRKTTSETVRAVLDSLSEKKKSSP
Procedure: as §1, §2

B1: TRC 1-2 recognition sequence (dsDNA)
DNA 1: TGGCCTGGAGCAACAAATCTGA
DNA 2: TCAGATTTGTTGCTCCAGGCCA
Q: What does the source list for B1?
A: EC50 [1]: 0.179 ug mRNA per 1e6 cells; EC50 [2]: 0.372 ug mRNA per 1e6 cells
